# Data as given in paper PMC2572630.
# Target: Flag-tagged mR3-3 c-Myb (chicken) (UniProt P01103)
# Assay: protein chromatin immunoprecipitation (PChIP); 293T cells fixed with 1% formaldehyde, lysate sonicated to chromatin fragments of 100-300 bp, anti-Flag M2 agarose, washes up to 500 mM NaCl and 500 mM LiCl, histones detected by western blot
# Sequence of UniProt P01103 (P01103 other isoform, or with tags, fused parts or gaps): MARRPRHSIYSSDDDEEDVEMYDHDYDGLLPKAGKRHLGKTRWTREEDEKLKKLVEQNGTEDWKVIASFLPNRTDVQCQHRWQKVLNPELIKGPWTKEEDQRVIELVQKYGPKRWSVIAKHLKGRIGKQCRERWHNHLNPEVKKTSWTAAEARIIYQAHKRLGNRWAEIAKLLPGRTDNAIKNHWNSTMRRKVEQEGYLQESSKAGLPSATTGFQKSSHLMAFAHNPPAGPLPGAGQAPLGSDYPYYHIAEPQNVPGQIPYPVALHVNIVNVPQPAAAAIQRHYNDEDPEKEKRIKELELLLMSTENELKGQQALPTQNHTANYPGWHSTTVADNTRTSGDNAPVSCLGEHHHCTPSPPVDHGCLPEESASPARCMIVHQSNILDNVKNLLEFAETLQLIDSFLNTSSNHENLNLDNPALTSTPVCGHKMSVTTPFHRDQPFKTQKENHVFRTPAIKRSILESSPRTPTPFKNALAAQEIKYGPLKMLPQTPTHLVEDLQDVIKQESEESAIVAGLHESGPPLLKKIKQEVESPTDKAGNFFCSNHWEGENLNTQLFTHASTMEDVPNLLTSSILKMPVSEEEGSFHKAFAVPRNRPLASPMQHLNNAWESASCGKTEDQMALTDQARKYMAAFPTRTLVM
row,percent decrease in association against wild-type c-Myb,Substance
1,50%,histone H2A (from UniProt P0C0S8 1-130) (natural protein)
2,50%,histone H3 (from UniProt P68431 1-136) (natural protein)
3,50%,histone H4 (from UniProt P62805 1-103) (natural protein)
